Measured values taken from article PMC7588011, “Engineering Stem Cell Factor Ligands with Different c-Kit Agonistic Potencies” (Molecules, 2020).
Where a chain is given by its changes, count along the chain named. Names and notes keep the numbering of the source. Blank lines part the entries; values can stand above or below the molecule they belong to.

What was measured:
[1] = target: SCFM, stem cell factor V49L F63L double mutant, soluble (UniProt P21583); test: small angle X-ray scattering; purified SCFWT and SCFM at 3 or 5 mg/mL (193 or 322 µM), 25 °C; radius of gyration compared with that of the theoretical monomer and dimer from PDB 1SCF
[2] = target: T1, recombinant c-Kit (R&D Systems) (UniProt P10721 26-524); test: SPR; ProteOn XPR36; c-Kit amine-coupled to a GLC chip; SCF proteins flowed in PBST at 100 µL/min, 25 °C; KD from the equilibrium-binding phase, 1:1 Langmuir model; BSA channel subtracted; settings: both partners purified
T1 construct: c-Kit receptor tyrosine kinase, recombinant; No catalogue number printed; the discussion calls it 'recombinant soluble c-Kit'; also called surface-immobilized c-Kit; recombinant soluble c-Kit; source: bought: R&D Systems
T1 sequence (P10721 26-524): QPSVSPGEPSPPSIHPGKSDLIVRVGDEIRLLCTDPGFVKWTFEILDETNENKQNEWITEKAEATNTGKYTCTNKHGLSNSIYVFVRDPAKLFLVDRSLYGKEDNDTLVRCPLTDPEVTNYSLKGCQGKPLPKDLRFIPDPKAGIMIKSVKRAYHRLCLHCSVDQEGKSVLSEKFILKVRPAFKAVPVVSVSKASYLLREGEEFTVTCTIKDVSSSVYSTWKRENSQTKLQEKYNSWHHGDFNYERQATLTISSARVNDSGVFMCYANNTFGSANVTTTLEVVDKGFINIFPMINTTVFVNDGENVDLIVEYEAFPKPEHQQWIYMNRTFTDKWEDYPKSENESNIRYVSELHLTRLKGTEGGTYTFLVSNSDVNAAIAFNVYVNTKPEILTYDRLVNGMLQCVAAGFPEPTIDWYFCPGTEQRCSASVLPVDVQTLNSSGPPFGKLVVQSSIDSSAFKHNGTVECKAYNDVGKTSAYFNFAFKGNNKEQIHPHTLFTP

stoichiometry N [1]: 2
Molecule: SCFM, stem cell factor V49L F63L double mutant, soluble (from UniProt P21583 26-214) (ligand)

Kd [2]: 88.9 nM
B1: SCF_(M,K91E), soluble (ligand, UniProt P21583 26-214, looked up)
chain: EGICRNRVTNNVKDVTKLVANLPKDYMITLKYVPGMDVLPSHCWISEMLVQLSDSLTDLLDKLSNISEGLSNYSIIDKLVNIVDDLVECVEENSSKDLKKSFKSPEPRLFTPEEFFRIFNRSIDAFKDFVVASETSDCVVSSTLSPEKDSRVSVTKPFMLPPVAASSLRNDSSSSNRKAKNPPGDSSLH
notes: stem cell factor (SCF), SCFM (V49L, F63L) with K91E, selected from the first-generation yeast display library; source: purified in non-glycosylated form (production described in the Supplementary Materials)

Kd [2]: 40.7 nM
B2: SCF_(M,K91E,L98R), soluble (ligand, UniProt P21583 26-214, looked up)
chain: B1 chain with L98R
notes: stem cell factor (SCF), SCFM (V49L, F63L) with K91E and L98R, selected from the second-generation yeast display library; also called SCF_(K91E,L98R); source: purified in non-glycosylated form (production described in the Supplementary Materials)

Kd [2]: 74.4 nM
B3: SCF_(M,S64P,F126S,V131A,E134G,V139I), soluble (ligand, UniProt P21583 26-214, looked up)
chain: B1 chain with S64P, E91K, F126S, V131A, E134G, V139I
notes: stem cell factor (SCF), SCFM (V49L, F63L) with S64P, F126S, V131A, E134G and V139I, selected from the first-generation yeast display library; also called SCFM,N; source: purified in non-glycosylated form (production described in the Supplementary Materials)
